The source of these data is paper doi:10.1101/2025.08.13.670108v1.

Series [1] has as its system C[N+](C)(C)[C@@H](Cc1cnc[nH]1)C(=O)[O-]. The series can be described thus: purified protein. The format is biochemical, Shewanella woodyi. The conditions noted are these: pH 8.5.
A further series has as its system O=C(O)/C=C/c1c[nH]cn1. Description: purified protein. The conditions noted are these: pH 8.0; 25.0 °C.

As for “Swoo_3913 (Shewanella woodyi ATCC 51908)”, the Km in series [1] is 103 ± 8 µM.
For “Swoo_3912 (Shewanella woodyi ATCC 51908)”, in the series on O=C(O)/C=C/c1c[nH]cn1, the Km stood at 0.7 ± 0.1 µM.
